In PMC5101480 (Scientific Reports, 2016):
Entries after “also recorded” stand apart in the source; their conditions may differ.

Experiments:
[1] = target: T1, TPR domain of SGTA (SGTA_TPR) (Homo sapiens, UniProt O43765); experiment: Isothermal titration calorimetry (ITC), SGTA_TPR titrated into Rpn13 or DMSLD peptide; type: binding
T1 construct: thioredoxin A (TxA) fusion (N, cleaved yes); hexahistidine tag (N, cleaved yes); made in house; host or cells: E. coli BL21(DE3) Rosetta
Method: ITC experiments were performed using an ITC-200 microcalorimeter from Microcal (GE Healthcare) at 25 °C following the standard protocol as reported previously. Proteins or peptide samples were prepared in 10 mM potassium phosphate pH 6.0, 100 mM NaCl, 250 μM TCEP. In each titration, either 40 injections of 1 μL or 20 injections of 2 μL of SGTA_TPR each, at a concentration of 1 mM, were added to a sample of Rpn13 or the Rpn13 derived DMSLD peptide at a concentration of 50 μM in the reaction cell. A nonlinear least-squares minimization algorithm was applied to integrated heat data obtained for the titrations, corrected for heats of dilution, in order to fit the experimentally obtained values to a theoretical titration curve. This was performed using the MicroCal-Origin 7.0 software package. ΔH (reaction enthalpy change in kcal/mol), Kb (equilibrium binding constant in per molar), and n (molar ratio between the proteins in the complex) were used as fitting parameters. The reaction entropy, ΔS, was calculated using the relationships ΔG = −RT lnKb (R = 8.314 J/(mol K), T 298 K) where ΔG = ΔH − TΔS. Dissociation constants (Kd) have been determined for each interaction. Binding was assumed to be at one site (n = 1), to determine the binding affinity (Kd) and thermodynamic parameters.

[2] = system: K160E/R164E double mutant SGTA_TPR; experiment: Size exclusion chromatography (SEC) complex formation with K160E/R164E double mutant SGTA_TPR; type: binding, human; conditions: Rpn13_260-407 up to 3-fold molar excess
Description: The ‘two-carboxylate clamp’ mode of binding is a well-characterised mechanism of molecular recognition by TPR domains in the context of their binding to the conserved C-terminal IEEVD and MEEVD motifs of Hsp70 and Hsp90 chaperones, respectively. It is known that conserved residues present on the concave surface of the TPR domain form a positively charged region within this groove that clamp, the two carboxylate groups of the terminal aspartate (Fig. 3D). As the Rpn13 amino acid sequence ends with an aspartate, and given the C-terminal DMSLD peptide being necessary and sufficient for this interaction, the possibility of a two-carboxylate clamp mechanism was explored by site-directed mutagenesis experiments. […] Therefore a K160E/R164E double mutant version of SGTA was used in SEC and NMR experiments to understand the effect it had on Rpn13_260-407 binding.
Gene fragments encoding human Rpn13 (260–407 and 260–402) and SGTA_TPR domain (84–211) were PCR amplified from cDNA (Life Technologies) and cloned into the BamHI/XhoI site of a modified pET28 vector which encodes an N-terminal thioredoxine A (TxA) fusion protein followed by a hexahistidine tag and tobacco etch virus (TEV) protease cleavage site. […]

[3] = system: K160E/R164E double mutant SGTA_TPR; experiment: Reciprocal NMR CSP titration, Rpn13_260-407 with K160E/R164E double mutant SGTA_TPR; type: binding, human; conditions: up to 6-fold molar excess of Rpn13_260-407 and vice versa; pH 6.0, 25 °C
Description: The ‘two-carboxylate clamp’ mode of binding is a well-characterised mechanism of molecular recognition by TPR domains in the context of their binding to the conserved C-terminal IEEVD and MEEVD motifs of Hsp70 and Hsp90 chaperones, respectively. It is known that conserved residues present on the concave surface of the TPR domain form a positively charged region within this groove that clamp, the two carboxylate groups of the terminal aspartate (Fig. 3D). […]
Protein samples at concentrations between 300 μM and 1 mM were prepared in 10% D2O (Sigma Aldrich), 10 mM potassium phosphate pH 6.0, 100 mM NaCl and 250 μM TCEP buffer (with 10 μM DSS for proton chemical shift referencing). […] All NMR spectra were processed with TopSpin and analysed with CcpNMR Analysis[35]. Proteins used for NMR titrations were dialysed overnight against the same buffer (10 mM potassium phosphate pH 6.0, 100 mM NaCl and 250 μM TCEP) and mixed in different molar ratios, with the concentration of the labelled protein maintained constant. ^1H-^15N HSQC experiments were recorded for each titration point at 25 °C. Chemical shift perturbation (CSP) values were calculated for each amide signal using the following formula: […]

T1 sequence (O43765 84-211): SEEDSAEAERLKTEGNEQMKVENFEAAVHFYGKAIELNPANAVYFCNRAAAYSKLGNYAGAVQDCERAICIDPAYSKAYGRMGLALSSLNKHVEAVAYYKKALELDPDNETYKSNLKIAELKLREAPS

- ΔS (ITC) ([1]; 1 mM SGTA_TPR into 50 μM sample, pH 6.0, 25 °C, calculated from ΔG = −RT lnKb and ΔG = ΔH − TΔS): 10.6 ± 0.8 cal/mol·K
- ΔH (ITC) ([1]; 1 mM SGTA_TPR into 50 μM sample, pH 6.0, 25 °C, one site (n = 1)): -3.37 ± 0.08 kcal/mol
- Kd ([1]; ITC-200, 1 mM SGTA_TPR injected into 50 μM Rpn13 or DMSLD peptide, 10 mM potassium phosphate pH 6.0, 100 mM NaCl, 250 μM TCEP, 25 °C, one site (n = 1), read-out: dissociation constant, Kd (ITC)): 16.1 ± 1.4 µM
B1: Rpn13_260-407: Rpn13 C-terminal domain (residues 260–407), human, expressed in E. coli (protein)
chain: QPIQLSDLQSILATMNVPAGPAGGQQVDLASVLTPEIMAPILANADVQERLLPYLPSGESLPQTADEIQNTLTSPQFQQALGMFSAALASGQLGPLMCQFGLPAEAVEAANKGDVEAFAKAMQNNAKPEQKEGDTKDKKDEEEDMSLD
modifications: left off: thioredoxin A (TxA), N-terminal, cleaved | His6, N-terminal, cleaved
notes: Rpn13 C-terminal domain (residues 260–407), human, expressed in E. coli
- SEC complex formation with K160E/R164E SGTA_TPR [2]: does not co-elute; also recorded: no evidence of complex formation
- CSP with K160E/R164E SGTA_TPR, result in words [3]: disruption of the SGTA_TPR-Rpn13_260-407 interaction
